The record followed here is PMC6901440, “Bcl-2 regulates pyroptosis and necroptosis by targeting BH3-like domains in GSDMD and MLKL” (Cell Death Discovery, 2019).

The target in the test is T1, Bcl-2 (endogenous, THP-1 cells) (human (endogenous in THP-1), UniProt P10415 1-239).
T1 construct: Bcl-2 (B-cell lymphoma 2), endogenous in the human macrophage cell line THP-1; immunoprecipitated with anti-Bcl-2 antibody; also called B-cell lymphoma 2; source: endogenous, THP-1 lysate
The test can be described thus: co-IP; endogenous proteins; Bcl-2 immunoprecipitated from THP-1 lysates; cells basal or LPS 50 ng/ml 5 h + nigericin 5 uM 30 min (Fig. 1b); PMA treated cells with or without TNFa 20 ng/ml, 100 nM Smac mimetic, 20 uM z-VAD-FMK for 3 h (Fig. 5d); lysis buffer 20 mM HEPES pH 7.4, 0.5% Triton X-100, 0.5% CHAPS, 10% glycerol; washed eight times. The note with it: partners not purified.

T1 sequence (P10415 whole entry): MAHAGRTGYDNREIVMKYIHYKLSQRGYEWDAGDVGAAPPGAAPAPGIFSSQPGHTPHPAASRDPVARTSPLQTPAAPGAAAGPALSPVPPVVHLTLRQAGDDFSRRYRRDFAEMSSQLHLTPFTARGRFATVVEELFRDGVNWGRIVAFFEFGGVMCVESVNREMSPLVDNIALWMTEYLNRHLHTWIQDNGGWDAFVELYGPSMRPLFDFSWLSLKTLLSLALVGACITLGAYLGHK

B1: gasdermin D (endogenous, THP-1 cells) (natural protein, human (endogenous in THP-1), UniProt P57764 1-484, looked up)
chain: MGSAFERVVRRVVQELDHGGEFIPVTSLQSSTGFQPYCLVVRKPSSSWFWKPRYKCVNLSIKDILEPDAAEPDVQRGRSFHFYDAMDGQIQGSVELAAPGQAKIAGGAAVSDSSSTSMNVYSLSVDPNTWQTLLHERHLRQPEHKVLQQLRSRGDNVYVVTEVLQTQKEVEVTRTHKREGSGRFSLPGATCLQGEGQGHLSQKKTVTIPSGSTLAFRVAQLVIDSDLDVLLFPDKKQRTFQPPATGHKRSTSEGAWPQLPSGLSMMRCLHNFLTDGVPAEGAFTEDFQGLRAEVETISKELELLDRELCQLLLEGLEGVLRDQLALRALEEALEQGQSLGPVEPLDGPAGAVLECLVLSSGMLVPELAIPVVYLLGALTMLSETQHKLLAEALESQTLLGPLELVGSLLEQSAPWQERSTMSLPPGLLGNSWGEGAPAWVLLDECGLELGEDTPHVCWEPQAQGRMCALYASLALLSGLSQEPH
notes: gasdermin D (GSDMD), endogenous in the human macrophage cell line THP-1; also called GSDMD; source: endogenous, THP-1 lysate
For B1, the “fold change of GSDMD associated with Bcl-2 after LPS and nigericin against basal conditions” value is 2.4 fold.
